Assays:
MC38 CRC cell line = assay: CRC model, tumor cell inoculated (MC38 subcutaneously); type: in vivo, mice; conditions: FIG. 31A
Experimental: Tumor inoculation was performed with 0.5M of MC38 CRC cell line subcutaneously. Mice were injected three times a week with 1 mg/kg of 2G1 or Ctrl Ab for 3 weeks starting at d4 after tumor induction. Cyclophosphamide was injected I.P. once at 100 mg/kg. Tumor development was assessed three times a week and survival curves were established when mice developed a tumor >1000 mm3.

[1] = system: lesions in the central nervous system induced by MOG peptide; assay: autoimmune encephalomyelitis experimental model (EAE); type: in vivo
From the text: Lesions in the central nervous system were induced by injection of the immunogenic MOG peptide combined with adjuvants.

[2] = system: CCR7 expression at the surface of pro-inflammatory macrophages M1; assay: CCR7 expression on M1 macrophages with coated antibodies; type: cell-based, human; conditions: antibody coated on plate, 48 h, flow cytometry; vs isotype control; FIG. 25, FIG. 35
Experimental: FIG. 25. Inhibition of CCR7 expression on M1 macrophages cells in vitro with anti-ChemR23 antibodies coated. 2G1 and all humanized 2G1 variants (HALA, HCLC, HCLD, HDLC and HDLD) were immobilized on plate. Isotype control were added as controls. Two isotypes which prevent FcRγ binding, i.e., 2G1-N297A (2G1 wt mutated in N297A to reduce FcγR binding), and 2G4 (wt with isotype IgG4mutated in S228P to stabilise hinge region) were also added. Pro-inflammatory macrophages M1 were added on coated plate for 48 h, and CCR7 expression at the surface of the macrophages was measured by flow cytometry.
FIG. 35—Inhibition of CCR7 expression on M1 macrophages cells in vitro with anti-ChemR23 antibody coated. The humanized 2G1 variant HEF-LD-T52S was immobilized on plate. Isotype control were added as controls. Pro-inflammatory macrophages M1 were added on coated plate, and CCR7 expression at the surface of the macrophages was measured by flow cytometry.
MATERIAL AND METHODS. […]
RESULTS. […] Pro-inflammatory macrophages M1 were added on coated plate for 48 h, and CCR7 expression at the surface of the macrophages was measured by flow cytometry.
The humanized 2G1 variant HEF-LD-T52S was immobilized on plate. […] Pro-inflammatory macrophages M1 were added on coated plate for 48 h, and CCR7 expression at the surface of the macrophages was measured by flow cytometry. […]

[3] = system: ROS production by PMN from healthy volunteers; assay: ROS test in PMN; type: cell-based, human; conditions: coated Ab at 10 μg/mL, after 5 h; FIG. 26C
Experimental: Neutrophils were isolated from blood of healthy volunteers and cultured for 24 h (Mortality analysis), or 4 h, 6 h, 11 h (Caspase-3 assay), or 5 h (ROS assay) on coated Iso ctrl (cross), chimeric anti-ChemR23 2G1 (square) or different humanized versions of the 2G1 (diamonds). Mortality of PMN was analyzed by incubating PMN with specific markers of the mortality and viability and then counted by picture analysis.
PMN from healthy volunteers were incubated in culture medium with coated Ab at 10 μg/mL for 24 h or 5 h and stained either with a dead/viability kit (LIVE/DEAD (Invitrogen)) or a specific marker of reactive oxygen species (ROS) respectively. The percentages of positive cells were obtained by analyzing the pictures with ImageJ software.

colitis induced by DSS = assay: acute inflammatory colitis model induced by DSS; type: in vivo, mice
Experimental: FIG. 2. Effect of an anti-CMKLR1 antibody on a mice acute inflammatory colitis model induced by DSS. Mice were injected after 6 days of DSS induction with isotype control hIgG1 (10 μg per mouse) (x), RvE1 (1 μg per mouse) daily (●), or 2G1 antibody (10 μg per mouse) three times (□) for 5 days. Wild type mice, not treated, are represented by an ▾. A. Animal weight loss. B. Animal stool score C. Colon length. D. Resolution index.
Colitis was induced in 8-10 weeks-old-C57Bl/6 male mice by adding 2% (wt/vol) of DSS to the sterile drinking ad libitum water for 6 days. Treatments were injected intra-peritoneally: Isotype control hIgG1 (10 μg per mouse), RvE1 (1 μg per mouse) daily, or 2G1 antibody (10 μg per mouse) three times for 5 days. Colitis follow-up consisting of body weight and stool score (0: normal stool; 4: blood in stool) parameters were performed daily. When mice were euthanized, colon length representing the pathology severity was measured. Resolution index was determined in the different conditions as described in Bannenberg et al., 2005.

B1: 2G1: parental chimeric anti-CMKLR1 antibody: heavy chain variable domain SEQ ID No. 37, light chain variable domain SEQ ID No. 49 (antibody, V domains shown)
VH: EVQLVASGGGLVQPGGSLKLSCAASGFTFSSYGMSWVRQTPDRRLELVATINRYGGSTYYPDSVKGRFTISRDNAKNTLYLQMSSLKSEDTAMYYCPRLIYYGNEGDSWGQGTTLTVSS
VL: QIVLTQSPAIMSASPGEKVTMTCSASSSVSFMHWYQQKSGTSPKRWIYDTTKLTSGVPARFSGSGSGTFYSLTISSMEAEDAATYYCQQWNSKPPLTFGPGTKLELKR
tumor volume (MC38 CRC cell line; 1 mg/kg three times a week for 3 weeks starting at d4, vs control antibody): reduced
remission (MC38 CRC cell line; in several cases): complete remission
Weight variation overtime ([1]; curative administration, 1 mg/kg from clinical score 2, FIG. 32A): does not lead to the reduction of the weight
illness score lower than control ([1]; ten-day posttreatment): approximately 30%
illness score ([1]; vs control antibody, FIG. 32B): significantly reduced
expression of CCR7 at the surface of pro-inflammatory macrophages (M1) [2]: able to decrease expression of CCR7
ROS production by PMN [3]: increase the ROS production
stool score (colitis induced by DSS; 0: normal stool, 4: blood in stool, FIG. 2B): significantly better
Animal weight loss (colitis induced by DSS; 10 μg per mouse i.p. three times for 5 days, vs control antibody or RvE1, FIG. 2A): lost significantly less weight

— patent publication US12534533B2, “Anti-chemokine like receptor 1 humanized antibodies and their therapeutic applications” (OSE IMMUNOTHERAPEUTICS, priority 2019, dated 2026)
